Test results as given in IntAct's records for PubMed 23565059.

B1: Homeodomain-interacting protein kinase 2 (Mus musculus), Q9QZR5 (parent)
chain: MAPVYEGMASHVQVFSPHTLQSSAFCSVKKLKVEPSSNWDMTGYGSHSKVYSQSKNIPPSQPASTTVSTSLPIPNPSLPYEQTIIFPGSTGHIVVTSASSTSVTGQVLGGPHNLMRRSTVSLLDTYQKCGLKRKSEEIENTSSVQIIEEHPPMIQNNASGATVATATTSTATSKNSGSNSEGDYQLVQHEVLCSMTNTYEVLEFLGRGTFGQVVKCWKRGTNEIVAIKILKNHPSYARQGQIEVSILARLSTESADDYNFVRAYECFQHKNHTCLVFEMLEQNLYDFLKQNKFSPLPLKYIRPVLQQVATALMKLKSLGLIHADLKPENIMLVDPSRQPYRVKVIDFGSASHVSKAVCSTYLQSRYYRAPEIILGLPFCEAIDMWSLGCVIAELFLGWPLYPGASEYDQIRYISQTQGLPAEYLLSAGTKTTRFFNRDTDSPYPLWRLKTPDDHEAETGIKSKEARKYIFNCLDDMAQVNMTTDLEGSDMLVEKADRREFIDLLKKMLTIDADKRVTPIETLNHPFVTMTHLLDFPHSAHVKSCFQNMEICKRRVNMYDTVNQSKTPFITHVAPSTSTNLTMTFNNQLTTVHNQAPTTSSATLSLANPEVSILNYQSALYQPSAASMAAVAPRSMPLQTGTAQICARPDPFQQALIVCPPGFQGLQASPSKHAGYSVRMENAVPIVTQAPGAQPLQIQPGLLAQQAWPGGAQQILLPPAWQQLTGVATHTSVQHAAVIPETMAGTQQLADWRNTHAHGSHYNPIMQQPALLTGHVTLPAAQPLNVGVAHVMRQQPTSTTSSRKSKQHQSSVRNVSTCEVTSSQAISSPQRSKRVKENTPPRCAMVHSSPACSTSVTCGWGDVASSTTRERQRQTIVIPDTPSPTVSVITISSDTDEEEEQKHAPTSTVSKQRKNVISCVTVHDSPYSDSSSNTSPYSVQQRTGHNGTNTLDTKGGLENHCTGNPRTIIVPPLKTQASEVLVECDSLGPAISASHHSSSFKSKSSSTVTSTSGHSSGSSSGAIAYRQQRPGPHFQQQQPLNLSQAQQHMAADRTGSHRRQQAYITPTMAQAPYTFPHNSPSHGTVHPHLAAAAHLPTQPHLYTYTAPTALGSTGTVAHLVASQGSARHTVQHTAYPASIVHQVPVSMGPRVLPSPTIHPSQYPAQFAHQTYISASPASTVYTGYPLSPAKVNQYPYI

Variants of: B1
Settings: with mef2c_mouse Mef2c

| effect of a mutation on the interaction | Variant |
| --- | --- |
| decreasing interaction strength | K228A |
